Results from publication PMC10992996, “Human CRB1 and CRB2 form homo- and heteromeric protein complexes in the retina” (Life Science Alliance, 2024).

Target: T1, CRB1-FLAG p.N1317H (human, UniProt P82279 26-1406, p.N1317H)
T1 construct: Crumbs homolog 1, canonical form, human, cDNA NM_202153 as printed, with a patient missense mutation; Made by site-directed mutagenesis of m1; also called CRB1 p.N1317H; p.C1317H; source: HEK293T, transfected, in lysate; not shown: Strep-Strep-FLAG, N-terminal, kept
T1 sequence (looked up): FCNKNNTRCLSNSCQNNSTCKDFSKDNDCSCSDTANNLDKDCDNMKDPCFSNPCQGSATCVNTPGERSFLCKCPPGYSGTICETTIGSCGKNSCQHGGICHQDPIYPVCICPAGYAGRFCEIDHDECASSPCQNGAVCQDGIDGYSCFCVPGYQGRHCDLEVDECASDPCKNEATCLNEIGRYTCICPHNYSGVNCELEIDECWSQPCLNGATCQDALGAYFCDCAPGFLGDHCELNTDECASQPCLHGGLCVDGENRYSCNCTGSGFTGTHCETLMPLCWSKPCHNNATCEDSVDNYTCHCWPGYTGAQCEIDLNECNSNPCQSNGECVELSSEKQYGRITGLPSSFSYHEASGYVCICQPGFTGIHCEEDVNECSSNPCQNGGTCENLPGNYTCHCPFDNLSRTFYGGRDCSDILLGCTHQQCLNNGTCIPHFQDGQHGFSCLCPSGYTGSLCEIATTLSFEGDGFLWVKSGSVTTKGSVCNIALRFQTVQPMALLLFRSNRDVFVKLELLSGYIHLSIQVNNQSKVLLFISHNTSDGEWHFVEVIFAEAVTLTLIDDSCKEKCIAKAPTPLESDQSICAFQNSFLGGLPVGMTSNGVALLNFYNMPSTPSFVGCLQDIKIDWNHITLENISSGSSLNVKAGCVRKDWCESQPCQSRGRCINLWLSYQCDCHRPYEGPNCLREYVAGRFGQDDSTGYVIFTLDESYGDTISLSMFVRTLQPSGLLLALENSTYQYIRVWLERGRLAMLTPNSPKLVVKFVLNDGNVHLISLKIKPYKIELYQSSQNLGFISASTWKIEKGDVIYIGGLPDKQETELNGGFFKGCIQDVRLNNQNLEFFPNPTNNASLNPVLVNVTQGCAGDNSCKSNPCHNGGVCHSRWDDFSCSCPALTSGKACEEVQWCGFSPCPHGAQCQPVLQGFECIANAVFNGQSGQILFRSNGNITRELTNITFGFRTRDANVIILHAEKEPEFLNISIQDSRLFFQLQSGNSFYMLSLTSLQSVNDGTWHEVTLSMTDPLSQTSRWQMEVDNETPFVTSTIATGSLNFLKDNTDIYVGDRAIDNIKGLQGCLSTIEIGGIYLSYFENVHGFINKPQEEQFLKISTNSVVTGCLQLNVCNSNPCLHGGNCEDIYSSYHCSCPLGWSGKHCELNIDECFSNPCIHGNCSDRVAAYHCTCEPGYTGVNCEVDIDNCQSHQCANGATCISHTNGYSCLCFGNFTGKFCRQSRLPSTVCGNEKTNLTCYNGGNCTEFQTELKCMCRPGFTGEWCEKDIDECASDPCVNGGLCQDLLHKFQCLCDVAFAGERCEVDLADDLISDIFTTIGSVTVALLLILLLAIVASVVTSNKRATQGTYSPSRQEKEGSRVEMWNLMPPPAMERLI
Test: co-IP; HEK293T cells co-transfected pairwise with a FLAG and an HA construct, 48 h; lysis in TBS (30 mM Tris-HCl pH 7.4, 150 mM NaCl) with 0.5% Nonidet P40; FLAG-IP on ANTI-FLAG M2 Affinity Gel 60-90 min at 4°C, elution with FLAG peptide; Western blot with HA and FLAG antibodies; for mutants HA/FLAG signal in eluates relative to WT, three biological replicates
Conditions: partners not purified

B1: Human canonical CRB2 (Crumbs homolog 2) (natural protein)
chain: not shown
notes: Crumbs homolog 2, human, cDNA NM_173689; Stood as bait (FLAG copy) and as prey (HA copy) in the pairwise co-IP matrix; each copy carries only one of the two tags; The FLAG copy was the bait of the mass spectrometry pull-downs; also called CRB2-FLAG; CRB2-HA; source: HEK293T, transfected, in lysate (co-IP); HEK293T, transfected, FLAG-IP on beads, washed and purified with 0.01% SDS (retina …)
  percent reduction of the interaction relative to CRB1 WT: 24%
